Data on 32 variants can be found in the RNAGym collection of RNA variant scans (doi:10.7554/elife.80360).

To fix the notation:
B1: HDV Ribozyme (parent)
chain: GGCCGGCAUGGUCCCAGCCUCCUCGCUGGCGCCGGCUGGGCAACAUUCCGAGGGGACCGUCCCCUCGGUAAUGGCGAAUGGGACCCA

The data set covers variants of B1. Put plainly: self-cleavage, relative activity (ratio to wild type); higher = more cleavage; co-transcriptional.
On to GGCCGGCAUGGUCCCAGCCUCCUCGCUGGCGCCGGCUGGGCAACAUUCCGAGGGGACCGUCCCCCCGGUAAUGGCGACUGGGACCCA [U65C A78C], for which the self-cleavage came out at 0.293.
The same measure for GGCCGGCUUGGUCCCAGCCUCCUCGCUGGCGCCGGCUGGGCAACAUUCCGUGGGGACCGUCCCCUCGGUAAUGGCGAAUGGGACCCA [A8U A51U]: 0.787; for GGCCGGCAUGGUCCCAGCCUCCUCGCUGGCGCCGGCUGUGCAACAUUCCGAGGGGACCGUCCCCUCGGUCAUGGCGAAUGGGACCCA [G39U A70C]: 0.536; for GGCCGGCAUGGUCCCAGCCUCCUCGCUGGCGCCGGCUGGGCAACAUUCCGAGGGUACCGUCCCCUCGGUAAUGGCGAAUGCGACCCA [G55U G81C]: 0.106.
The same measure for GGCCGGCAUGGUCCCAGCCUCCUCGCUGGCGCCGGCUGGGCAACAUUCCAAGGGGACCGUCCCCUCGGUAAUGGCGAAUGGCACCCA [G50A G82C]: 0.409.
The value for GGGCGGCAUGGUCCCAGCCUCCUCGCUGGCGCCGGCUGGGCAACAUUCCGAGGGGACCGUCCCCUCGGUAAUGGUGAAUGGGACCCA [C3G C75U] was 0.0863; that for GGCCGGCAUGGUCCCAGCCUCCUAGCUGGCGCCGGCUGGGCAACAUUCCGAUGGGACCGUCCCCUCGGUAAUGGCGAAUGGGACCCA [C24A G52U] was 0.769.
With GGCCGGCAUGGUCCCAGCCUCCUCGCUGGCGCCAGCUGGGCAACAUUCCGAGGGGACCGUCACCUCGGUAAUGGCGAAUGGGACCCA [G34A C62A], the self-cleavage came out at 0.0692.
Take GGCCGGCCUGGUGCCAGCCUCCUCGCUGGCGCCGGCUGGGCAACAUUCCGAGGGGACCGUCCCCUCGGUAAUGGCGAAUGGGACCCA [A8C C13G]: the self-cleavage was 0.0692.
GGCCGGCAUGGUCCCAGCCUCCUCGCUGGCGCCGGCUGGGCAACAUCCCGAGGGGACCGUCCCCUCGCUAAUGGCGAAUGGGACCCA [U47C G68C]: the self-cleavage was 0.44.
GGCCGGCAUGGUCCCAGGCUCCUCGCUGGCGCCGGCUGGGCAACAUUCCGAGGGGACCGUCCCCUCGGUAAUGGCGCAUGGGACCCA [C18G A77C]: the self-cleavage turned out to be 0.178.
The value for GGCCGGCAUGGUCCCAGCCUCCUCGCUGGCGCCGGCUGGGCAACAUUCCGAGGGGACCGUCCCCUCUGUAAUGGUGAAUGGGACCCA [G67U C75U] was 0.104; that for GGCCGGCAUGGUCCCAGUCUCCUCGCUCGCGCCGGCUGGGCAACAUUCCGAGGGGACCGUCCCCUCGGUAAUGGCGAAUGGGACCCA [C18U G28C] was 0.089.
For the variant GGCCGGCAUGGUCCCAGUCUCCUCGCUGGCGCCGGCUGGGCAACAUUCCGAGGGGACCGUCCCCUCGGUAAUGGCGAAUGCGACCCA [C18U G81C], the self-cleavage came to 0.136.
The value for GGCCGGCAUGGUCCCAGCCUCCUCGCUGGCGCCGGCUGGGCAACAUUCCGAGGGGACCGUCCCCGCGGUAAUGGCGAAUCGGACCCA [U65G G80C] was 0.185; that for GGUCGGCAUGGUCCCAGCCUCCUCGCUGGCGCCGGCUGGGCAACAUUCCCAGGGGACCGUCCCCUCGGUAAUGGCGAAUGGGACCCA [C3U G50C] was 0.686.
The value for GGCCGGCAUGGUCCCAGCCUCCUCGCUGGCGCCGGCUGGGUAACAUUCCGAGGGGACCGUCCCCUCGGUAAUGGCGAAUGGGAGCCA [C41U C84G] was 0.589; that for GGCCGGCAUGGUCCCAGCCUCCUCGCUGGCGCCGGCUGGGCUACAUCCCGAGGGGACCGUCCCCUCGGUAAUGGCGAAUGGGACCCA [A42U U47C] was 0.394; that for GGCCGGCAUGGUACCAGCCUCCUCGCUGGCGCCGGCUGGGCAACAUUCCGAGGGGACCGUCCCCUCGGUAGUGGCGAAUGGGACCCA [C13A A71G] was 0.
GGCCGGCAUGGUCCCAGCCUCCCCGCUGGCGCCGGCUGGGCAACAUUCCGGGGGGACCGUCCCCUCGGUAAUGGCGAAUGGGACCCA [U23C A51G]: the self-cleavage was determined as 0.978.
The same measure for GGCCGGCAUGGUCCCAGCCUCCUCGCUGGCGCCGGCUGGGCAACAUUCCGAGCGGACGGUCCCCUCGGUAAUGGCGAAUGGGACCCA [G53C C58G]: 1; for GGCCGGCAUGGUCCCAGCGUCCUCGCUGGCGCCGGCUGGGCAACAUUCCGAGGGGACCGUCGCCUCGGUAAUGGCGAAUGGGACCCA [C19G C62G]: 0.0791.
For GGCCGGCAUGUUCCCAGCCUCCUCGCUGGCGCCAGCUGGGCAACAUUCCGAGGGGACCGUCCCCUCGGUAAUGGCGAAUGGGACCCA [G11U G34A], the self-cleavage stood at 0.21.
The value for GGCCGGCAUGGUCCCAGCCUCCUCGCUGGCGCCGGCUUGGCAACAUUCCGAGGGGACCGUCCCCUAGGUAAUGGCGAAUGGGACCCA [G38U C66A] was 0.185.
Turning to UGCCGGCAUGGUCCCAGCUUCCUCGCUGGCGCCGGCUGGGCAACAUUCCGAGGGGACCGUCCCCUCGGUAAUGGCGAAUGGGACCCA [G1U C19U], the self-cleavage stood at 0.28.
The value for GGCCGGCAUGGUCCCAGCCUCCUCGCUGACGCCGGCUGGGCAACAUUCCGAGGGGACCGUCCCCUCGGUAAUGGCGAAUGGCACCCA [G29A G82C] was 0.0627.
The value for GGCCGGCAUGGUCCCAGCCUCCUCGCUGGCGCCGGCUGGGCAACAUUCCGAGGGGACCGUCCGAUCGGUAAUGGCGAAUGGGACCCA [C63G C64A] was 0.862; that for GGCCGGCAUGGUCCCAGCCUCCUCGCUGGCGCCGGCUGGGCAACAUUCCGAGGGGACCGUCCCCUCGGUAAUGGCGGAUGGGAGCCA [A77G C84G] was 0.573; that for GGCCGGCAUGGUCCCAGCCUCAUCGCUGGCGCCGGCUGGGCAACAUUCAGAGGGGACCGUCCCCUCGGUAAUGGCGAAUGGGACCCA [C22A C49A] was 0.128.
The same measure for GGCCGGCAUGGUCCCAGCCUCCUCGCUGGCGCCGGCUGGGCAACCUUCCGAGGGGACCGUCACCUCGGUAAUGGCGAAUGGGACCCA [A45C C62A]: 0.584.
In the case of GGCCGGCAUGGUCCCAGCCUCCUCGCUGGCGCCGGCUGGGCAACAUUCCGAGGGGAACGUCCCCUCGGUAAUAGCGAAUGGGACCCA [C57A G73A], the self-cleavage was 0.708.
The same measure for GGCCGGCAUGGUCCCAGCCUCCUCGCUGGCGCCGGCUGGGCAACUUUCCGAGGGGACCGUCCCCUCGGUAAUGGCGAAUCGGACCCA [A45U G80C]: 0.
